Test results published in PMC3431625.

Target: Recombinant α2β1 integrin (UniProt P17301)
Test: ELISA

Sequence of Recombinant α2β1 integrin (P17301 30-1181, chain 1 of 2): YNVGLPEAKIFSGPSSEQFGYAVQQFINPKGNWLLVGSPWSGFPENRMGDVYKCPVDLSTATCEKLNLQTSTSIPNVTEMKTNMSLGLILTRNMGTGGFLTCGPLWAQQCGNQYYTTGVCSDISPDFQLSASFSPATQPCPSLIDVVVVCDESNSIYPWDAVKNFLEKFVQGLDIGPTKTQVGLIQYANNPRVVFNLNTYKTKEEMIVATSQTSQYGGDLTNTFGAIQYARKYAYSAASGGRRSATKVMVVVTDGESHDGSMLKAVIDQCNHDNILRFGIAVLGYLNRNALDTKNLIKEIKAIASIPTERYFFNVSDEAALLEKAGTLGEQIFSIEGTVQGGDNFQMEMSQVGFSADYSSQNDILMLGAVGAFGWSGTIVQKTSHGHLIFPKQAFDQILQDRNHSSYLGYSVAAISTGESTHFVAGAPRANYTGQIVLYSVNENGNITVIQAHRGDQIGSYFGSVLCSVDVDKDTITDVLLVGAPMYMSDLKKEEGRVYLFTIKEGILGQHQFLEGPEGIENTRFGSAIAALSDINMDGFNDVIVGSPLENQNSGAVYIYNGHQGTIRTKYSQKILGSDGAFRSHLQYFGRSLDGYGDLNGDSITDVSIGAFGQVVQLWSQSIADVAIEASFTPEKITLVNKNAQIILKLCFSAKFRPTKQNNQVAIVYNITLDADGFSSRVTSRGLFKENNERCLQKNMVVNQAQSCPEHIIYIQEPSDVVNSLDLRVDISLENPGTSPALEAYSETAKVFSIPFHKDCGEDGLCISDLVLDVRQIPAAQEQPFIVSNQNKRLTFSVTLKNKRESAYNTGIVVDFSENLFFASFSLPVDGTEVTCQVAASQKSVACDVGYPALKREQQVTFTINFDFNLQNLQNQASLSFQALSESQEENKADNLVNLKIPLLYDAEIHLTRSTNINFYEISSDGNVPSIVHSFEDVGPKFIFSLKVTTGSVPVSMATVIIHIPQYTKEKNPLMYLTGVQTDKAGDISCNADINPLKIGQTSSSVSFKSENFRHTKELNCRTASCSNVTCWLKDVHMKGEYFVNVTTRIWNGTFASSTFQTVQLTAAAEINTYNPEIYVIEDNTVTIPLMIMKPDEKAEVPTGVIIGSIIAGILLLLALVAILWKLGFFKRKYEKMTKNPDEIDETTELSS
Sequence of Recombinant α2β1 integrin (P05556 21-798, chain 2 of 2, further chain): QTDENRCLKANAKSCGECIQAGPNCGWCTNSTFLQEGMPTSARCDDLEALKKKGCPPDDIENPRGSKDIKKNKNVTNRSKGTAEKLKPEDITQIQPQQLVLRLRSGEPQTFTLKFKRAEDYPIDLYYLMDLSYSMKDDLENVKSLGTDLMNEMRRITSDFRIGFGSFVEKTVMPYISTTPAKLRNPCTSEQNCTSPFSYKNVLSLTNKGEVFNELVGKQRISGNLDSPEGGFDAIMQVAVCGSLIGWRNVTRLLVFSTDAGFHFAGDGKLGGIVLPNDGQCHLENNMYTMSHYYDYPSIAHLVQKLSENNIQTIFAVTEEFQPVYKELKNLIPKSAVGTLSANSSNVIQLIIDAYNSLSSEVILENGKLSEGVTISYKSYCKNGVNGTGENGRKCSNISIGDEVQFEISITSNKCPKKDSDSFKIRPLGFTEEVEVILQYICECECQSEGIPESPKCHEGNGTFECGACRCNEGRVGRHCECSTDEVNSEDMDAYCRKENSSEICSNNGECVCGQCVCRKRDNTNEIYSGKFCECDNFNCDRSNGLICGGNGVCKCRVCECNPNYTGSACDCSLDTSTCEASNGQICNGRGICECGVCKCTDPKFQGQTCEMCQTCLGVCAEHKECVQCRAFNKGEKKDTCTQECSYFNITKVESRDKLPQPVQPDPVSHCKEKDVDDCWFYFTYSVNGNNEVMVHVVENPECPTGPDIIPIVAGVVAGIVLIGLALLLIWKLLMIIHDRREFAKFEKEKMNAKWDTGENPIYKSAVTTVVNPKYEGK

Biotinylated collagen type I (from UniProt P02453;P02465) (natural protein)
Kd: 1.5 nM
